We go through two molecules from patent US20090136475A1 (FRAUNHOFER GESELLSCHAFT ZUR FORDERUNG DER ANGEWANDTEN …, published 2009).

In experiment [1] the target is CD30 molecule on the Hodgkin-derived CD30-positive cell line L540Cy (UniProt P28908). The experiment is described as follows: cell-based or functional assay.
Experiment [2] deals with T1, CD30 molecule on the Hodgkin-derived CD30-positive cell line L540Cy (UniProt P28908 19-595, limits assumed).
T1 construct: whole, on cells; the cell lines are human-derived; also called CD30-positive cells
T1 sequence (looked up): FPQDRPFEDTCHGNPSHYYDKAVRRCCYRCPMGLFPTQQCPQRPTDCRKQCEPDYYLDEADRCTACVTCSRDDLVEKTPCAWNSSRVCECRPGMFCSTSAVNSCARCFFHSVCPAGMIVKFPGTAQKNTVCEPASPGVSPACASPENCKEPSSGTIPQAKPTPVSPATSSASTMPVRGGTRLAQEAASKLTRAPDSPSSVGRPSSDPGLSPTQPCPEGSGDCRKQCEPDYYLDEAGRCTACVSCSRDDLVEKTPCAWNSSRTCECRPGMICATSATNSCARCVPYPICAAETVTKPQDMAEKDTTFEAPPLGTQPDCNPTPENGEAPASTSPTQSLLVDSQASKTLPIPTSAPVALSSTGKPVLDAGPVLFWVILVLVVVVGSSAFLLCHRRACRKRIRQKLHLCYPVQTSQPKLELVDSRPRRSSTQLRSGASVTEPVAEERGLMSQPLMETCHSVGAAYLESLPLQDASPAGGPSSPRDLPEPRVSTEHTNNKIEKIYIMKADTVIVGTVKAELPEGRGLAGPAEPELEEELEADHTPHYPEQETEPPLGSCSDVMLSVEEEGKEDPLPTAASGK
The experiment in a line: flow cytometry on L540Cy cells, detection by anti-penta-His and FITC goat-anti-mouse IgG. The method, then: Cell binding activity of the recombinant complexes (immunokinases) expressed in E. coli BL21 Star™ (DE3) was evaluated using a FACSCalibur flow cytometry instrument and CellQuest software (Becton Dickinson, Heidelberg, Germany). Cells were stained with recombinant protein as described (25). Briefly, ten thousand events were collected for each sample, and analyses of Intact cells were performed using appropriate scatter gates to exclude cellular debris and aggregates. 5×10⁵ cells were incubated for 1 h on ice with 50 μl of bacterial protein extract at a concentration of 30-40 μg/ml or 100 μl of the immunokuinase containing supernatants respectively. The cells were washed with PBS buffer containing 0.2% w/v BSA and 0.05% w/v sodium azide (PBA) and then incubated for 30 min with anti-penta-His moab (Qiagen) diluted 1:2 in PBA buffer. Cells were washed and incubated with fluorescein-iso-thiocyanate (FITC)-labeled goat-anti-mouse IgG (DAKO Diagnostica, Hamburg, Germany) for 1 h at 4° C. After a final wash, the cells were treated with 2 μl 6.25 mg/ml propidiumiodide and subsequently analyzed on a FACScalibur (Becton Dickison, Heidelberg, Germany).

“recombinant complex (immunokinase) pMS-(L-DAPk2-Ki-4)-III/G, protein L-DAPk2-Ki-4-MH”: in experiment [1], the calculated median IC50, growth inhibition of L540Cy cells, XTT-based colorimetric assay is 0.004 to 0.035 mg/L.

B1: recombinant complex (immunokinase) pMT-Ki-4(scFv)-eEF-2K (other)
chain: MGHHHHHHHHHHSSGHIDDDDKHMKLMAQPAMAQVKLQESGTELAKPGAAVKMSCKASGYTFTDYWMHWVKQRPGQGLEWIGYINPNTAYTDYNQKFKDKATLTADKSSSTAYMQLRSLTSEDSAVYYCAKKTTQTTWGFPFWGQGTTVTVSSGGGGSGGGGSGGGGSDIVLTQSPKSMAMSVGERVTLSCKASENVDSFVSWYQQKPGQSPKLLIYGASNRYTGVPDRFAGSGSGRDFTLTISSVQAEDLADYHCGQNYRYPLTFGAGTKLEIKRAAAELGGGGSMADEDLIFRLEGVDGGQSPRAGHDGDSDGDSDDEEGYFICPITDDPSSNQNVNSKVNKYYSNLTKSERYSSSGSPANSFHFKEAWKHAIQKAKHMPDPWAEFHLEDIATERATRHRYNAVTGEWLDDEVLIKMASQPFGRGAMRECFRTKKLSNFLHAQQWKGASNYVAKRYIEPVDRDVYFEDVRLQMEAKLWGEEYNRHKPPKQVDIMQMCIIELKDRPGKPLFHLEHYIEGKYIKYNSNSGFVRDDNIRLTPQAFSHFTFERSGHQLIVVDIQGVGDLYTDPQIHTETGTDFGDGNLGVRGMALFFYSHACNRICESMGLAPFDLSPRERDAVNQNTKLLQSAKTILRGTEEKCGSPRVRTLSGSRPPLLRPLSENSGDENMSDVTFDSLPSSPSSATPHSQKLDHLHWPVFSDLDNMASRDHDHLDNHRESENSGDSGYPSEKRGELDDPEPREHGHSYSNRKYESDEDSLGSSGRVCVEKWNLLNSSRLHLPRASAVALEVQRLNALDLEKKIGKSILGKVHLAMVRYHEGGRFCEKGEEWDQESAVFHLEHAANLGELEAIVGLGLMYSQLPHHILADVSLKETEENKTKGFDYLLKAAEAGDRQSMILVARAFDSGQNLSPDRCQDWLEALHWYNTALEMTDCDEGGEYDGMQDEPRYMMLAREAEMLFTGGYGLEKDPQRSGDLYTQAAEAAMEAMKGRLANQYYQKAEEAWAQMEE
notes: Single-chain fusion: pelB signal peptide, enterokinase-cleavable His10 tag, anti-CD30 Ki-4 scFv, eukaryotic elongation factor-2 kinase; It was expressed in the periplasm of E. coli BL21 Star (DE3) and purified by IMAC and SEC
Take B1: in experiment [2], the binding result is listed as “binds”.
